This is an account of results in PMC5570900, “Exploiting a novel conformational switch to control innate immunity mediated by complement protein C3a” (Nature Communications, 2017).

Series [1] can be described thus: Rat liver microsomal stability. The series is classed as in vitro ADME. Particulars: rat, liver microsomes, pH 7.4; parallel control experiment, 37 °C; read-out: t1/2 in rat liver microsomes. The procedure:
(§1) For plasma stability studies, C3a and experimental compounds (10 μL, 1 mM in DMSO) were added to neat rat plasma (190 μL) and heated to 37 °C in a circulating water bath. Aliquots (20 µL) were collected at time points (0, 2, 5 and 10 min for C3a; 0, 5, 15, 30, 60, 120 and 240 min for other test compounds) and added directly to MeCN/H2O (80 µL, 9:1). The samples were centrifuged at 13,000 g for 3 min before supernatants were isolated and analyzed for test compound degradation via LC-MS. For liver microsomal stability studies, commercially available rat liver microsomes from Life Technologies, GIBCO were used. In brief, microsomes stored at −80 °C were slowly defrosted on ice. Test compounds (183 μL, 1 μM in 100 mM phosphate buffer pH 7.4 containing 0.1 % DMSO) were added to microsomes (5 μL) and NADPH (2 µL, 20 mM). Test solutions were heated in a circulating water bath at 37 °C for 5 min before additional cofactor NADPH (10 μL, 20 mM) was added. Aliquots (20 μL) were taken at time points (0, 5, 15, 30 and 60 min from the second addition of NADPH). Aliquots were added to MeCN/H2O (80 μL, 9:1) and centrifuged at 13,000 g for 3 min. Supernatants were analyzed for test compound degradation by LC-MSMS. Concentrations were plotted as a function of time on a semi-logarithmic graph. Rat plasma and microsomal activity was confirmed by rapid degradation of SLIGRL-NH2 (t1/2 < 5 min) in a parallel experiment.

Another series is described as follows: Rat plasma stability. The series is classed as in vitro ADME. The settings on record: 37 °C. The procedure: as §1
In a further series the target is T1, C5aR (Homo sapiens, UniProt P21730).
T1 construct: endogenous in cells; host or cells: primary human monocyte-derived macrophages (HMDMs)
T1 sequence (P21730 1-350): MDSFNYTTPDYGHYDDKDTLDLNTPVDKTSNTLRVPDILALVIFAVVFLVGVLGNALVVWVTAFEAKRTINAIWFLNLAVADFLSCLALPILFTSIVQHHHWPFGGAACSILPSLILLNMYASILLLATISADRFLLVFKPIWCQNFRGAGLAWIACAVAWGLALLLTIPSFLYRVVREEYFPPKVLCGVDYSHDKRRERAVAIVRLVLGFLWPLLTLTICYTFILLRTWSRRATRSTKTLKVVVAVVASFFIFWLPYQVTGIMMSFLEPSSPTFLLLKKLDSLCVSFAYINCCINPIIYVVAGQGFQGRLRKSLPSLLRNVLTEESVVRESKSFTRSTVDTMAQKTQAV
Kind of series: [125I]-hC5a competition binding on HMDMs. Particulars: [125I]-hC5a 25 pM. The procedure: Receptor binding was performed by ligand competition with labelled 80 pM [^125I]-C3a or 25 pM [^125I]-C5a (2200 Ci/mmol; Perkin Elmer, Torrance, CA, USA) on HMDMs (1.2 × 10^6 cells/ml). HMDMs were treated with [^125I]-C3a or [^125I]-C5a ± various concentrations of unlabelled C3a/C5a or experimental ligands were diluted with assay buffer (50 mM Tris, 3 mM MgCl2, 0.1 mM CaCl2, 0.5% (w/v) BSA, pH 7.4) for 60 min at room temperature. Unbound [^125I]-C3a or [^125I]-C5a was removed by filtration through glass microfibre filter GF/B (Whatman Iner. Ltd, England) and washed three times with cold buffer (50 mM Tris-HCl pH 7.4). Bound [^125I]-C3a or [^125I]-C5a were assessed by scintillation counting on Microbeta counter. Specific binding was defined as the difference between total binding and nonspecific binding as determined in the presence of 1 μM unlabelled C3a or C5a[4].

Series [2] concerns wild-type human HEK293 cells (C3aR−/−). Briefly: Intracellular Ca2+ release in wild-type HEK293 cells. It counts as cell-based.
In series [3] the target is T2, C3aR (Homo sapiens, UniProt Q16581).
T2 sequence (Q16581 1-482): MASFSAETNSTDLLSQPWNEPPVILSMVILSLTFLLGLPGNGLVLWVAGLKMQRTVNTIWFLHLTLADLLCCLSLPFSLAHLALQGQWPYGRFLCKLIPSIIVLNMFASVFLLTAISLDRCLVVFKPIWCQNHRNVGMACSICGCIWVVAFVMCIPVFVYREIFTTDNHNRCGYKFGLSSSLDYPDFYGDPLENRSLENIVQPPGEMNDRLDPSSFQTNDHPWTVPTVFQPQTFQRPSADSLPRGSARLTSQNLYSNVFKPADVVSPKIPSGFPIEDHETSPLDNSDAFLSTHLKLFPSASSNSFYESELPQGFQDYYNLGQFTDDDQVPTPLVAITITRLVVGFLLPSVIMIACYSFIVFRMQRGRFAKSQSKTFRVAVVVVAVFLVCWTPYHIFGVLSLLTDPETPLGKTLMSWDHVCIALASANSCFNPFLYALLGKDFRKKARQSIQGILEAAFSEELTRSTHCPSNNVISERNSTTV
Briefly: Histamine secretion in human LAD2 mast cells (agonist mode). It counts as cell-based. Also noted: Concentration-dependent histamine secretion in human LAD2 mast cells; endogenous in cells; host or cells: LAD2 human mast cells. Particulars: compound alone, 30 min, n ≥ 3, ± SEM. As for the experimental part: LAD2 human mast cells (kindly provided by Dr Dean Metcalfe, National Institute of Allergy and Infectious Diseases, National Institute of Health) were cultured in StemPro®-34 Serum Free Media (Invitrogen, Australia) supplemented with StemPro®-34 nutrient, 100 U/mL penicillin, 100 μg/mL streptomycin, 2 mM GlutaMAX, and 100 ng/mL human stem cell factor (SCF). Cells were hemi-depleted weekly and were not allowed to grow beyond a density of 0.5 × 10^6/mL. This cell line was authenticated by expression of tryptase and histamine granules. For the histamine assay, 1 × 10^4 cells per well were seeded in StemPro®-34 SFM in 96-well plates for 30 min before any treatments. For agonist studies, the cells were treated with compounds prepared in media for 30 min. For antagonist studies, the cells were pre-treated with compounds prepared in SFM for 30 min before addition of C3aR agonists for another 30 min. Cells were centrifuged (500 g, 5 min, 4 °C) and cell-free supernatants were collected for measuring histamine. Histamine content was measured using the histamine EIA kit according to the manufacturer’s instructions (Abnova, Taiwan). The readings were recorded on a FLUOstar Optima (BMG LabTechnologies, Offenburg, Germany).

The target of series [4] is T2, C3aR. Kind of series: Intracellular Ca2+ release in HEK293 cells transfected with C3aR. Set-up: Concentration-dependent Ca^2+ release in human monocyte-derived macrophages (HMDMs); endogenous in cells; host or cells: primary human monocyte-derived macrophages (HMDMs). The series is classed as cell-based. The settings on record: HEK293 cells transfected with C3aR (C3aR+/+), compound alone.

In series [5] the target is T2, C3aR. Briefly: Intracellular Ca2+ release in human monocyte-derived macrophages (agonist mode). It counts as cell-based. Set-up: Concentration-dependent Ca^2+ release in human monocyte-derived macrophages (HMDMs); endogenous in cells; host or cells: primary human monocyte-derived macrophages (HMDMs). The settings on record: HMDMs, n ≥ 3, ± SEM. The procedure:
HMDMs were isolated using Ficoll-paque density centrifugation (GE Healthcare Bio-Science, Uppsala, Sweden) from buffy coat (of anonymous human donors) provided by the Australian Red Cross Blood Service, Brisbane. CD14^+ monocytes were positively selected using CD14 MicroBeads (Miltenyi Biotech, Auburn, USA)[40], [41]. CD14^+ monocytes were differentiated to HMDMs using 100 ng/mL of recombinant human macrophage colony-stimulating factor (PeptroTech, Rocky Hill, USA) for 7 days in Iscove’s modified Dulbecco’s media supplemented with 10% fetal bovine serum, penicillin (100 U/mL), streptomycin (100 µg/mL) and L-glutamine (2 mM). HMDMs were supplemented after 5 days with fresh medium containing 10 ng/ml macrophage colony-stimulating factor and collected by gentle scraping on day 7.
HMDMs were seeded to a 96-well clear-bottom black-wall assay plate at a density of 5 × 10^4 cells per well and allowed to adhere overnight. Prior to assay, cells were incubated with dye-loading buffer (Hank’s balance salt solution (HBSS) buffer, 4 μM Fluo-3 AM, 25 μl Pluronic acid F-127 and 1% fetal bovine serum) for 1 h at 37 °C. Cells were then washed once with assay buffer (HBSS supplemented with 2.5 mM probenecid and 20 mM HEPES, pH 7.4). Intracellular calcium release was monitored using a fluorescence imaging plate reader (excitation 495 nm, emission 520 nm). The percentage responses were plotted against logarithmic concentrations of each test compound[42].

“H-SLIGRL-NH2 [SLIGRL-NH2, reference compound]”: the half-life at 0.915 µM in series [1] was < 5 min. In addition, in “Rat plasma stability” (rat, plasma (neat), parallel control experiment, read-out: t1/2 in rat plasma), the half-life at 50 µM was < 5 min.
On to “hC3a: human complement protein C3a, 77 residue ~9 kDa helix bundle inflammatory protein”, for which the “C5aR binding by competition with [125I]-hC5a” value in the series with C5aR is listed as “no binding”. The “Intracellular Ca2+ release” value in series [2] is recorded as “did not induce Ca^2+ release”; in the series with C3aR [4] it was “did induce Ca^2+ release”. Further, the results for the EC50 with C3aR [3] and in the series with C3aR [5] were 3 ± 1.5 nM and 8 ± 2 nM, respectively. For the same substance, the “Stability in rat plasma” value in “Rat plasma stability” (neat rat plasma, over 4 h (C3a up to 10 min)) is “degraded within minutes”.

In general, EC50 refers to the concentration needed to bring the measured effect to its halfway point. A higher EC50 goes with weaker potency.
